Paper doi:10.1101/258194 (bioRxiv, 2018)

T1: Zip2^499-704 (XPF-like region), recombinant, co-expressed with His6-Spo16 (S. cerevisiae, UniProt P53061 499-704)
T1 sequence: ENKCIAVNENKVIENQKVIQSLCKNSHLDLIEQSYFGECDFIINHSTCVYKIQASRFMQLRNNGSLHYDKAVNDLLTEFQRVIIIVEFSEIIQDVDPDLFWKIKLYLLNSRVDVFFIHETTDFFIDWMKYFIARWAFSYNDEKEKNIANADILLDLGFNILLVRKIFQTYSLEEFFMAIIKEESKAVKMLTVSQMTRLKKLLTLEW

T2: Zip2^499-704, surface-lysine methylated (Form 1 crystals) (S. cerevisiae, UniProt P53061 499-704)
T2 sequence: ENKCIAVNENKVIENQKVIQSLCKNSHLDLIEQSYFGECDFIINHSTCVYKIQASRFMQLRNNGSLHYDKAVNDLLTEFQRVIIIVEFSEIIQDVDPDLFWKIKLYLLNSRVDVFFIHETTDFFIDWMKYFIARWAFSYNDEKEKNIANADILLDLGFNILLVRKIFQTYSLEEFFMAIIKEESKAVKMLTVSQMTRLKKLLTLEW


Experiments:
[1] = target: T1, Zip2^499-704 (XPF-like region), …; test: SEC-MALS
[2] = target: T2, Zip2^499-704, surface-lysine methylated …; test: crystal structure

stoichiometry N [1]	binding result [2]	Binder
1		His6-Spo16 (full-length Spo16 with TEV-cleavable N-terminal His6-tag), recombinant (natural protein) SEFFWDVQKIQEISNVEEHSVVKCVTVNTSRLISQLNEELQDEESGVNFIVTQLQLLINNVYEKIQKSPGVPAHRSLMINLNFTRLKFSIAYWDILLERSLDLINGPSKTGARYFITEVTPVDRSRYVENNQYFLAFKANQRLTRNSVDMDEFIDFEILIKQIIFDLFKKNGIPDQDFEAILSRFHNLESLVVAFNE
	binds	His6-Spo16, surface-lysine methylated (Form 1 crystals) (natural protein, surface lysines dimethylated (positions not listed)) SEFFWDVQKIQEISNVEEHSVVKCVTVNTSRLISQLNEELQDEESGVNFIVTQLQLLINNVYEKIQKSPGVPAHRSLMINLNFTRLKFSIAYWDILLERSLDLINGPSKTGARYFITEVTPVDRSRYVENNQYFLAFKANQRLTRNSVDMDEFIDFEILIKQIIFDLFKKNGIPDQDFEAILSRFHNLESLVVAFNE
